Laboratory results: patent US20250340658A1 (TWIST BIOSCIENCE, published 2025)
Positions count from the first letter of the chain named. Read-outs that look alike come from different tables or passages of the source.

B1: GLP1R-3 (antibody, human IgG2, lambda, V domains shown)
VH: QVQLVESGGGVVQPGRSLRLSCAASGFTFSSYGMHWVRQAPGKGLEWVSFISYDESNKYYADSVKGRFTISRDNSKNTLYLQMNSLRAEDTAVYYCAKHMSMQEGAVTGEGQAAKEFIAWLVKGRVRADLVGDAFDVWGQGTLVTVSS
VL: QSVLTQPPSVSAAPGQKVTISCSGSSSNIADNYVSWYQQLPGTAPKLLIYDNNKRPSGIPDRFSGSKSGTSATLGITGLQTGDEADYYCGTWDNYLGAGVFGGGTKLTVLG
notes: full length human IgG2; also called GLP1R01-3
B2: GLP1R-222-090 (antibody, V domains shown)
VH: B1 VH with T28S, S31D, M34I, S49A, F50L, D54E, E55G, G111K
VL: QSVLTQPPSVSAAPGQKVTISCSGSSSNIADNYVSWYQQLPGTAPKLLIYDNNKRASGIPDRFSGSKSGTSATLGITGLQTGDEADYYCATWDNRLSAGVFGGGTKLTVL
notes: IgG
B3: GLP1R-222-052 (antibody, V domains shown)
VH: B1 VH with S30N, S31N, G33P, S49A, F50V, E110G
VL: B2 VL with A30G, D31K, N32R, Y33S, A90V, N94R, R95S
notes: IgG
B4: GLP1R-222-023 (antibody, V domains shown)
VH: B1 VH with T28S, S31D, S49A, E55A, S56N, G111W
VL: B2 VL with A30G, D31N, Y33D, D51E, N53T, A56P, A90G, N94A, R95G, A98T
notes: IgG
B5: GLP1R-222-073 (antibody, V domains shown)
VH: B1 VH with S30R, S31D, S49A, S52R, S56I, K123G
VL: B2 VL with S26G, A30G, D31N, Y33D, A90G, N94R, R95G, L96P, S97N, A98T
notes: IgG
B6: GLP1R-222-014 (antibody, V domains shown)
VH: B1 VH with T28A, S31N, S85N, G111W
VL: B2 VL with A30G, D31N, N32H, Y33D, A56H, A90G, N94T, R95S
notes: IgG
B7: GLP1R-222-081 (antibody, V domains shown)
VH: B1 VH with S30D, S31N, G33A, M34L, S49A, F50L, E55A, S56G, R125F
VL: B2 VL with A30G, D31S, N32D, A56S, A90G, N94E, R95S, S97R, A98S, G99W
notes: IgG
B8: GLP1R-222-056 (antibody, V domains shown)
VH: B1 VH with T28P, G33A, S49A, F50V, E55R, E110Y, R125F
VL: QSVLTQPPSVSAAPGQKVTISCSGSSSNIGSNYISWYQQLPGTAPKLLIYDNDKRPAGIPDRFSGSKSGTSATLGITGLQTGDEADYYCGTWDTSLSVGEFGGGTKLTVL
notes: IgG
B9: GLP1R-222-082 (antibody, V domains shown)
VH: B1 VH with S31A, G33S, S49A, F50L, E55A, S56T, G111F
VL: B2 VL with A30G, D31S, N32K, A56P, A90G, N94I, R95S, L96P, G99W
notes: IgG
B10: GLP1R-222-012 (antibody, V domains shown)
VH: B1 VH with S30N, S31N, S49A, F50V, Y53D, D54E, E55G, E110V
VL: B8 VL with S31N, Y33D, I34V, N52D, A57S
notes: IgG

Legend:
[1] = target: T1, full length human GLP-1R with N-terminal FLAG tag and C-terminal GFP tag, on CHO cells (human, UniProt P43220 24-463); test: flow cytometry titration, CHO GLP1R cells
T1 construct: whole, on cells; the cell line itself is tied to UniProt P43220; also called FLAG-GLP-1R-GFP; CHO-GLP-1R
Description: (§1) GLP-1R IgG clones were tested in a binding assay coupled to flow cytometry analysis as follows: FLAG-GLP-1R-GFP expressing CHO cells (CHO-GLP-1R) and CHO-parent cells were incubated with 100 nM IgG for 1 h on ice, washed three times and incubated with Alexa 647 conjugated goat-anti-human antibody (1:200) (Jackson ImmunoResearch Laboratories, 109-605-044) for 30 min on ice, followed by three washes, centrifuging to pellet the cells between each washing step. All incubations and washes were in buffer containing PBS+1% BSA. […] Cells were analyzed by flow cytometry and hits (a hit is an IgG that specifically binds to CHO-GLP-1R) were identified by measuring the GFP signal against the Alexa 647 signal. Flow cytometry data of binding assays with 100 nM IgG are presented as dot plots. Analyses of binding assays with IgG titrations are presented as binding curves plotting IgG concentrations against MFI (mean fluorescence intensity).

[2] = target: T1, full length human GLP-1R with …; test: flow cytometry, expressing vs parent CHO cells
Description: as §1

[3] = target: T1, full length human GLP-1R with …; test: flow cytometry, expressing vs parent CHO cells; remark: listed apart in the source
Description: as §1

[4] = target: T1, full length human GLP-1R with …; test: flow cytometry, GLP1R-expressing CHO cells
Description: as §1

[5] = target: T1, full length human GLP-1R with …; test: flow cytometry titration, CHO GLP1R cells; remark: listed apart in the source
Description: as §1

[6] = target: T1, full length human GLP-1R with …; test: flow cytometry, expressing vs parent CHO cells; remark: listed apart in the source
Description: as §1

[7] = target: T1, full length human GLP-1R with …; test: flow cytometry, expressing vs parent CHO cells; remark: listed apart in the source
Description: as §1

[8] = target: T1, full length human GLP-1R with …; test: flow cytometry, expressing minus parent CHO cells
Description: as §1

[9] = target: T1, full length human GLP-1R with …; test: flow cytometry, expressing minus parent CHO cells; remark: listed apart in the source
Description: as §1

[10] = target: T1, full length human GLP-1R with …; test: flow cytometry, GLP1R-expressing CHO cells; remark: listed apart in the source
Description: as §1

Row | Binder | Bmax [1] | EC50 [1] [nM] | MFI Ratio [2] | MFI Ratio [3] | Median RL1-H of Expressing Singlets [4] | Bmax [5] | EC50 [5] [nM] | MFI Ratio [6] | MFI Ratio [7] | Subtraction [8] | Subtraction [9] | Median RL1-H of Expressing Singlets [10]
1 | B1 | 153000 | 15.4 | 993 | 993 | 224000 | 800000 | 11.5 | 740 | 740 | 224000 | 232000 | 232000
2 | B2 | 1.08e+06 | – | – | – | 227000 | – | – | 525 | 525 | 227000 | – | –
3 | B3 | 228000 | 17.4 | – | – | 378000 | – | – | 13.7 | 13.7 | 350000 | – | –
4 | B4 | 220000 | 18.4 | – | – | 241000 | – | – | 778 | 778 | 241000 | – | –
5 | B5 | 151000 | 13.1 | – | – | 225000 | – | – | 984 | 984 | 225000 | – | –
6 | B6 | 213000 | 34.3 | – | – | 237000 | – | – | 794 | 794 | 237000 | – | –
7 | B7 | 194000 | 22.5 | – | – | 221000 | – | – | 850 | 850 | 221000 | – | –
8 | B8 | 293000 | 77.4 | – | – | 218000 | – | – | 946 | 946 | 217000 | – | –
9 | B9 | 135000 | 11.5 | – | – | 224000 | – | – | 711 | 711 | 224000 | – | –
10 | B10 | 234000 | 23.1 | – | – | 225000 | – | – | 775 | 775 | 225000 | – | –
